The target in one assay is His-tagged AvrXa27 (Xanthomonas oryzae pv. oryzae, UniProt A0A0K0GNW2 1-1136). In words: MST; […]; 50 mM Tris-HCl pH 7.8, 150 mM NaCl, 10 mM MgCl2, 0.05% Tween-20; 25°C; […]. The following applies: both partners purified.
The next assay addresses His-tagged PthXo1 (Xanthomonas oryzae pv. oryzae, UniProt B2SU53 1-1373). Described as above. The conditions noted are these: both partners purified.

Bounds are passed on as bounds.

B1: His-tagged Xa5 (OsTFIIAγ5), labelled with NT-647 (natural protein, rice (Oryza sativa), UniProt A2XZI2 1-106, looked up)
chain: MATFELYRRSTIGMCLTETLDEMVSSGTLSPELAIQVLVQFDKSMTEALENQVKSKVSIKGHLHTYRFCDNVWTFILTEASFKNEETTEQVGKVKIVACDSKLLSQ
modifications: amine-reactive red fluorescent dye NT-647
Broadly, the Kd is the concentration at which binding is half-saturated. Lower therefore signals higher affinity. Turning to B1, the Kd with His-tagged AvrXa27 and with His-tagged PthXo1 was less than 1000 nM throughout.

Source of the values: paper PMC6638009 (Molecular Plant Pathology, 2018).
